From publication PMC9972007
Where “and” joins values, the source holds several entries; their conditions need not be identical. Identical values can stand only once.

Biological target: Optineurin (OPTN) (Homo sapiens, UniProt Q96CV9 1-577)
Assay: tryptophan fluorescence quenching titration

Sequence of Optineurin (OPTN) (Q96CV9 whole entry): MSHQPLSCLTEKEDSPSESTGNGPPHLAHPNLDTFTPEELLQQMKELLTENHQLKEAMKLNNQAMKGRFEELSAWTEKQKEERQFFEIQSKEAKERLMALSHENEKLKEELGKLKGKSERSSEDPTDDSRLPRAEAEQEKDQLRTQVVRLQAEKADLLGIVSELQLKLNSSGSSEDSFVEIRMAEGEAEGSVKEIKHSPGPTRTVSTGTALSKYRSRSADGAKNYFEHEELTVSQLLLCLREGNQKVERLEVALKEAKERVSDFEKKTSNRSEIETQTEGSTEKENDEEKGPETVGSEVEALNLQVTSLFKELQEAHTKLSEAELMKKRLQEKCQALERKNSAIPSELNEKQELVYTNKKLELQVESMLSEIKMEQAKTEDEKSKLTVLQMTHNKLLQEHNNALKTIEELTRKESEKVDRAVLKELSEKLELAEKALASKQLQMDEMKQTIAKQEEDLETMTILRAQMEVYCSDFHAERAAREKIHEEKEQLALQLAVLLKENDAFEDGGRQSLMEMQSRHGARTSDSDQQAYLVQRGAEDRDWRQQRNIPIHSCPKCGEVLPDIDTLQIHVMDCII

B1: UG-repeat RNA 24-mer (ssRNA)
RNA: UGUGUGUGUGUGUGUGUGUGUGUG
With B1 as the binder, how does the Kd read?
The Kd was 4.61 µM and 4.49 µM.
